The results in this text go back to US20200277335A1 (LARRK BIO, published 2020).

The target of experiment [1] is chemokine receptor CCR8 (UniProt P51685). Description: cell-based or functional assay.
Experiment [2] deals with chemokine receptor CCR8 (UniProt P51685 1-355, limits assumed). Nature of the experiment: cell-based or functional assay.
Chain of chemokine receptor CCR8 (UniProt P51685 1-355, limits assumed) (P51685 whole entry): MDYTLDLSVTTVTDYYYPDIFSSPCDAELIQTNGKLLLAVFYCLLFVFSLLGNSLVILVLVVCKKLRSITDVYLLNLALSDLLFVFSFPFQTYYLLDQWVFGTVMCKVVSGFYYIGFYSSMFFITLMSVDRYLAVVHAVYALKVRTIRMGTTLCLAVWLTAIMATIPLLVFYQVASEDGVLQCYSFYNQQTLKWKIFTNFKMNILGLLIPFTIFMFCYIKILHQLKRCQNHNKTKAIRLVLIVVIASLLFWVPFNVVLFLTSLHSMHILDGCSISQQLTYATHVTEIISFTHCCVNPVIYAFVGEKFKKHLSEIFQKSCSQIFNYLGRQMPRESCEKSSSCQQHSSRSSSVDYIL

Chain of chemokine receptor CCR8 (UniProt P51685) (P51685 whole entry): as above

MC148 fusion protein MC148p-TAT-6xHis: the inhibition of 1-309 induced chemotaxis (IC50) with chemokine receptor CCR8 [1] was 200 nM.

With “synthetic MC148 protein (from UniProt Q98314 1-104) (ligand)”, the inhibition of 1-309 induced chemotaxis (IC50) in the experiment with chemokine receptor CCR8 [1] was greater than 15000 nM.

“recombinant MC148 protein (from UniProt Q98314 25-104) (ligand)” displayed an inhibition of 1-309 induced chemotaxis of cells expressing CCR8 (IC50) with chemokine receptor CCR8 [1] of 2 nM.

B1: peptide fragment VL-10 (peptide)
peptide: VSLARRKCCL
B1: in the experiment with chemokine receptor CCR8 [2], the “inhibition of 1-309 induced chemotaxis (IC50)” value is greater than 15000 nM.
